The values that follow come from patent US20160169885A1.

Series [1] deals with Ac-N-Asp-Gly-Asp-Ala-Gly-Tyr-Ala-Gly-Leu-Arg-Gly-Ala-Gly-diamino-ethyl-Bodipy FL.
For series [2], the target named is Ac-N-Asp-Gly-Asp-Ala-Gly-Tyr-Ala-Gly-Leu-Arg-Gly-Ala-Gly-diamino-ethyl-Bodipy FL. As to the kind of experiment: cell-based or functional assay.

Consider bovine pancreatic α-chymotrypsin, for which the “cleavage of the substrate, agarose gel electrophoresis, 1×PBS” value in series [1] is “after cleavage by α-chymotrypsin, migrates as two bands toward the cathode, representing a primary ... and a secondary ... α-chymotrypsin cleavage product”.
In series [2], “bovine pancreatic trypsin (from UniProt P00760 24-246) (enzyme)” had a detection limit of the cleavage products in whole rat blood (reaction in 1×PBS, then mixed with inhibitor-treated blood), agarose gel of 50 nM.
